US20230383295A1

Molecular target: integrin receptors
Assay: cell-based or functional assay

Substance: vitronectin with RGD domain mutated to RGE (knock-in mouse line Vtn^RGE/RGE) (from UniProt P29788 20-478) (ligand)
- HRP-filled vesicles in endothelial cells of Vtn^RGE mice compared to wildtype animals: 2 fold
